Laboratory results published in patent publication US20060171935A1, “Protecting cell therapy for neurological disorders including Parkinson's disease” (priority 2005, published 2006).

T1: citrate synthase (CS) (Sus scrofa, UniProt P00889)
T1 construct: purchased Sigma
T1 sequence (P00889 28-464): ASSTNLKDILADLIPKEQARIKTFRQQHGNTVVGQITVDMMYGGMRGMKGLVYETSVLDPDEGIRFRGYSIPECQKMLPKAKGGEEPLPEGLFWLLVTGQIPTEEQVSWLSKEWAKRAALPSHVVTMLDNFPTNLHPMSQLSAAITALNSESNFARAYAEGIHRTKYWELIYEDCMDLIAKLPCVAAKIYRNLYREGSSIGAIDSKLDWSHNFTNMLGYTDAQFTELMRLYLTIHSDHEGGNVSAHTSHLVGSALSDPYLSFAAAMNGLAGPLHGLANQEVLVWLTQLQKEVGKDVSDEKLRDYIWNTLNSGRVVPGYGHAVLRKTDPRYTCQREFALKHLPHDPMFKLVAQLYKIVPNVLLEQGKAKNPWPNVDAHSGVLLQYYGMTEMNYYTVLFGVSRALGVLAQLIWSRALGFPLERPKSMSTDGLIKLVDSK

B1: RNase A: negative control protein, from Sigma (protein, UniProt P61823 27-150, looked up)
Ribonuclease pancreatic: KETAAAKFERQHMDSSTSAASSSNYCNQMMKSRNLTKDRCKPVNTFVHESLADVQAVCSQKNVACKNGQTNCYQSYSTMSITDCRETGSSKYPNCAYKTTQANKHIIVACEGNPYVPVHFDASV

Tests used:
αSyn [1] = target: T2, αSyn (Homo sapiens, UniProt P37840); test: αSyn protofibril formation in vitro; type: biochemical; settings: molar ratio 1:2 (DJ-1: αSyn), 2 h at 55° C.
Method: αSyn protofibril and fibril formation assays were performed essentially as described (Uversky et al.). Briefly, protofibrils were formed by incubation of 200 μM WT synuclein with 100 μM DJ-1 or control chaperone protein in PBS for 2 h at 55° C. Samples were mixed with SDS loading buffer and analyzed by SDS-PAGE and Western blotting using αSyn LB509 antibody (Zymed). Quantitation of high molecular weight αSyn was performed using NIH Image J. Integrated pixel intensity of high molecular weight synuclein for each sample was normalized to monomeric synuclein intensity. For fibril formation, αSyn and chaperone proteins (as described above) were incubated with shaking for 1 wk at 37° C. Fibril formation was assessed by Congo red (Conway et al. 2000b).

αSyn [2] = target: T2, αSyn; test: αSyn Congo red-positive fibril formation in vitro; type: biochemical; settings: 200 μM αSyn, proteins 100 μM, 1 wk at 37° C.
Method: αSyn protofibril and fibril formation assays were performed essentially as described (Uversky et al.). […] For fibril formation, αSyn and chaperone proteins (as described above) were incubated with shaking for 1 wk at 37° C. Fibril formation was assessed by Congo red (Conway et al. 2000b).

[3] = system: DJ-1 deficient dopamine neurons; test: 6-OHDA sensitivity of ES-derived dopamine neurons, 3H-dopamine uptake; type: cell-based, murine; settings: 9 DIV, 72 h exposure
Text: (A) The SDIA coculture method. DJ-1 knockout or control heterozygous ES cells are cocultured with mouse stromal cells (MS5) in the absence of serum and leukemia inhibitory factor for 18 DIV. (B) DN production was quantified at 18 DIV by 3H-dopamine uptake assay. DJ-1-deficient ES cell cultures were defective relative to heterozygous control cultures. (C-D) Neuron production was quantified by immunohistochemical analysis as a percent of TuJ1-positive colonies that express TH (C) or GABA (D). Quantification of TH and GABA immunostaining was performed on all colonies in each of three independent wells. Colonies were scored as positive if any immunostained cells were present. *p≦0.05. […] (F) Kinetic analysis of DN differentiation in DJ-1-deficient cultures (clone 32, solid square) and heterozygous controls (open circle) as quantified by 3H-dopamine uptake assay. *p≦0.05. […] DNs were quantified by 3H-dopamine uptake assay. Data represent the means±SEM and were analyzed by ANOVA followed by Fisher's post-hoc test. *p≦0.05. […]
In Vivo Assays. […] Cell viability (as a percent of untreated control) was determined by MTT assay in triplicate (Fezoui et al. 2000). […] Reported values represent specific uptake from which non-specific uptake, determined in the presence of mazindol, was subtracted, and normalized for protein content (BCA kit, Pierce).

cerebellar granule cells = test: Parkin overexpression in kainate-treated cerebellar granule cells; type: cell-based, mice; settings: 500 μM for 24 h
Method: Cerebellar granule neurons from P6 mice were purified and transfected essentially as described (Scheiffele et al., Neuroligin expressed in nonneuronal cells triggers presynaptic development in contacting axons. Cell, 101:657-69, 2000). Dissociated cortical neurons from E16.5 mice were prepared and cultured as described (Scheiffele et al., Neuroligin expressed in nonneuronal cells triggers presynaptic development in contacting axons. Cell, 101:657-69, 2000). Primary midbrain cultures were prepared from E13.5 mouse embryos, as described (Hynes et al., Induction of midbrain dopaminergic neurons by Sonic hedgehog. Neuron, 15:35-44, 1995). Cells were treated for 24 h with or without kainate (250 or 500 μM as indicated; Sigma) or MPP^+ (1 or 10 μM as indicated; Sigma), stained for 20 min with 0.5 μg/ml Hoechst 33342 (Sigma), and visualized by fluorescence microscopy. For granule cell assays, at least 100 cells in two 20× fields were scored in duplicate for GFP and/or Hoechst signal. […] Cells were washed, incubated for 1 h at room temperature with appropriately-labeled secondary antibodies, and visualized by fluorescence microscopy. For midbrain culture experiments, DAT-specific immunoreactivity (pixels), and cytoplasmic parkin and cyclin E immunoreactivity (mean pixel density), were quantified in triplicate, across nine fields of view, at 20× using Image software (Scion). […]

insulin = test: Aggregation suppression of DTT-reduced insulin B chains; type: biochemical; settings: insulin 26 μM, 20 mM DTT, 25° C.
Method: FIG. 22 illustrates that DJ-1 is a redox-dependent molecular chaperone. (A) Aggregation of CS was monitored at 43° C. after addition of either 0.8 μM CS alone (black), or along with 8.0 μM RNase A (purple), 0.5 μM DJ-1 (aqua), 2.0 μM DJ-1 (blue), 4.0 μM DJ-1 (red), or 2.0 μM Hsp27 (green). (B) Aggregation of 0.8 μM CS after 30 min at […] (unfilled bar) is inhibited by 4.0 μM WT DJ-1 (black bar) but not 4.0 μM L166P mutant DJ-1 (gray bar). Data are shown as the mean±SEM and were analyzed by ANOVA with Fisher's post-hoc test. *p<0.05. (C) Aggregation of insulin (26 μM) B chains induced by 20 mM DTT at 25° C. Insulin alone (black) or in the presence of 4.0 μM RNase A (purple), 0.5 μM DJ-1 (aqua), 2.0 μM DJ-1 (blue), 4.0 μM DJ-1 (red), or 2.0 μM Hsp27 (green). […] (gray bar). Further treatment of DTT-reduced DJ-1 with 10 mM H2O2 for 10 min at 4° C. leads to reactivation of CS suppression (hatched bar). Data are shown as the mean±SEM and were analyzed by ANOVA with Fisher's post-hoc test. *p<0.05.
CS aggregation was performed in 40 mM HEPES (pH 7.8), 20 mM potassium hydroxinde, 50 mM potassium chloride, and 10 mM ammonium sulfate, and monitored in a thermostat-controlled fluorescence spectrophotometer with excitation and emission wavelengths at 500 nm and slit widths at 2.5 nm. Insulin aggregation was performed as described (Giasson et al. 2000). […]

citrate synthase (CS) = target: T1, citrate synthase (CS); test: Suppression of heat-induced aggregation of citrate synthase (chaperone assay); type: biochemical; settings: 0.8 μM CS, 43° C.
Method: To test the redox regulation of DJ-1, the inventors assayed chaperone activity in the CS aggregation assay in the presence or absence of the reducing agent DTT. […] (FIG. 22D). […] To further test whether redox regulation might govern DJ-1 chaperone activity, reactivation studies using reduced DJ-1 were performed. DTT-reduced DJ-1 was incubated with H2O2 (10 mM in aggregation buffer for 10 min at 4° C. followed by dialysis against aggregation buffer for 2 h), and subsequently chaperone activity was measured in the CS thermal aggregation assay. […] This was not an indirect effect of residual H2O2 on CS aggregation, as H2O2 treatment of CS increased aggregation (unpublished data).
CS aggregation was performed in 40 mM HEPES (pH 7.8), 20 mM potassium hydroxinde, 50 mM potassium chloride, and 10 mM ammonium sulfate, and monitored in a thermostat-controlled fluorescence spectrophotometer with excitation and emission wavelengths at 500 nm and slit widths at 2.5 nm. Insulin aggregation was performed as described (Giasson et al. 2000). CS, insulin, RNase A, and GST were obtained from Sigma; human Hsp27 was obtained from Stressgen.

Molecule	formation of soluble αSyn protofibrils (αSyn [1])	aggregation suppression of reduced insulin (insulin)	also measured
glutathione S-transferase [GST]	failed to inhibit		formation of Congo red-positive αSyn fibrils (αSyn [2]): did not
NCCc1cc(O)c(O)cc1O [6-OHDA, 6-hydroxydopamine]			sensitivity of DJ-1 deficient dopamine neurons to toxin [3]: increased sensitivity
C=C(C)[C@H]1CN[C@H](C(=O)O)[C@H]1CC(=O)O [kainate]			effect of toxin on cyclin E in granule cell cultures (cerebellar granule cells): led to the accumulation of cyclin E
Hsp27: well-described small cytoplasmic chaperone, human Hsp27, from Stressgen; positive control [reference compound]	failed to inhibit	effectively inhibited	
B1		neither DJ-1 nor the negative control protein RNase A displayed chaperone activity	suppression of heat-induced aggregation of CS (chaperone activity) (citrate synthase (CS)): failed to demonstrate chaperone activity
